Test results reported in US9273342B2, “Methods and systems for evaluating and predicting the reactivity of monooxygenase enzymes” (University of Rochester, priority 2011, dated 2016).

Test: Fingerprinting: demethylation activity on methoxy probes 1-5, Purpald colorimetric assay
Format: biochemical
Conditions: formaldehyde formation, FIG. 5A
Protocol: To test the viability of compounds I-5 as probes, the fatty acid hydroxylase CYP102A1 (SEQ ID NO 1) from Bacillus megaterium and […] engineered variants thereof (SEQ ID NO 3, SEQ ID NO 4, SEQ ID NO 5, SEQ ID NO 6, SEQ ID NO 8, SEQ ID NO 11, SEQ ID NO 12, SEQ ID NO 14, SEQ ID NO 15) were fingerprinted. […] Parallel reactions with 1-5 were carried out using these P450s in purified form and a NADPH cofactor regeneration system containing a […] (PTDH).
We investigated the utility of these probes for high-throughput profiling of a large library of engineered monooxygenase variants. […] The P450 libraries were expressed in 96-well plates (DH5a cells) and screened against probes 1-5 in parallel to acquire a fingerprint for each functional P450 variant occurring in these libraries. Reactions with the probes (1 mM, 60 min) were carried out using cell lysate in the presence of the phosphite/PTDH cofactor regeneration system, and probe activity was quantified based on absorbance at 550 nm after 60-min incubation with Purpald (30 mM). […] This example illustrates how probes of general formula II such as compound 1-5 could be used for fingerprinting a large library of monooxygenases in a high throughput manner.
Expression and Fingerprinting of P450 Libraries in 96-Well Plates. 96-deep well plates containing 400 μL LB medium (100 mg ampicillin L-1) per well were inoculated with single colonies from the P450 libraries. The total number of screened P450 variants was about 10,000. In each plate, 8 wells were inoculated with the parent enzyme FL#62. […] P450 demethylation activity on probe 1-5 was measured in parallel reactions with the aid of a Beckman Coulter Multimek 96 automated pipettor and a TECAN Infinity plate reader. […] After incubation for 1 hour at room temperature, plates were added with 50 μL 2 M NaOH containing 150 mM Purpald and the absorbance at 550 nm measured using the plate reader. The measured demethylation activity of each P450 variant on the five probes was then normalized to the activity of the parent enzyme FL#62 (SEQ ID NO 15) from the same plate. […]

| Molecule | probe activity on probes 1-5 (in words) |
| --- | --- |
| FL#41: engineered CYP102A1 variant used as reference P450 for fingerprint normalization, SEQ ID NO 3 (protein) MTIKEMPQPKTFGELKNLPLLNTDKPVQALMKIADELGEIFKFEAPGRVTRYLSSQRLIKEACDESRFDKNLSQALKFVRDFAGDGLATSWTHEKNWKKAHNILLPSFSQQAMKGYHAMMVDIAVQLVQKWERLNADEHIEVPEDMTRLTLDTIGLCGFNYRFNSFYRDQPHPFITSMVRALDEAMNKLQRANPDDPAYDENKRQFQEDIKVMNDLVDKIIADRKASGEQSDDLLTHMLNGKDPETGEPLDDENIRYQIITFLIAGHETTSGLLSFALYFLVKNPHVLQKAAEEAARVLVDPVPSYKQVKQLKYVGMVLNEALRLWPTAPAFSLYAKEDTVLGGEYPLEKGDELMVLIPQLHRDKTIWGDDVEEFRPERFENPSAIPQHAFKPFGNGQRACIGQQFALHEATLVLGMMLKHFDFEDHTNYELDIKETLTLKPEGFVVKAKSKKIPLGGIPSPSTEQSAKKVRKKAENAHNTPLLVLYGSNMGTAEGTARDLADIAMSKGFAPQVATLDSHAGNLPREGAVLIVTASYNGHPPDNAKQFVDWLDQASADEVKGVRYSVFGCGDKNWATTYQKVPAFIDETLAAKGAENIADRGEADASDDFEGTYEEWREHMWSDVAAYFNLDIENSEDNKSTLSLQFVDSAADMPLAKMHGAFSTNVVASKELQQPGSARSTRHLEIELPKEASYQEGDHLGVIPRNYEGIVNRVTARFGLDASQQIRLEAEEEKLAHLPLAKTVSVEELLQYVELQDPVTRTQLRAMAAKTVCPPHKVELEALLEKQAYKEQVLAKRLTMLELLEKYPACEMKFSEFIALLPSIRPRYYSISSSPRVDEKQASITVSVVSGEAWSGYGEYKGIASNYLAELQEGDTITCFISTPQSEFTLPKDPETPLIMVGPGTGVAPFRGFVQARKQLKEQGQSLGEAHLYFGCRSPHEDYLYQEELENAQSEGIITLHTAFSRMPNQPKTYVQHVMEQDGKKLIELLDQGAHFYICGDGSQMAPAVEATLMKSYADVHQVSEADARLWLQQLEEKGRYAKDVWAG | minimal yet detectable activity on all five probes |
| Wild-type CYP102A1: fatty acid hydroxylase CYP102A1 from Bacillus megaterium, SEQ ID NO 1 (protein, listed as Bacillus megaterium) MTIKEMPQPKTFGELKNLPLLNTDKPVQALMKIADELGEIFKFEAPGRVTRYLSSQRLIKEACDESRFDKNLSQALKFVRDFAGDGLFTSWTHEKNWKKAHNILLPSFSQQAMKGYHAMMVDIAVQLVQKWERLNADEHIEVPEDMTRLTLDTIGLCGFNYRFNSFYRDQPHPFITSMVRALDEAMNKLQRANPDDPAYDENKRQFQEDIKVMNDLVDKIIADRKASGEQSDDLLTHMLNGKDPETGEPLDDENIRYQIITFLIAGHETTSGLLSFALYFLVKNPHVLQKAAEEAARVLVDPVPSYKQVKQLKYVGMVLNEALRLWPTAPAFSLYAKEDTVLGGEYPLEKGDELMVLIPQLHRDKTIWGDDVEEFRPERFENPSAIPQHAFKPFGNGQRACIGQQFALHEATLVLGMMLKHFDFEDHTNYELDIKETLTLKPEGFVVKAKSKKIPLGGIPSPSTEQSAKKVRKKAENAHNTPLLVLYGSNMGTAEGTARDLADIAMSKGFAPQVATLDSHAGNLPREGAVLIVTASYNGHPPDNAKQFVDWLDQASADEVKGVRYSVFGCGDKNWATTYQKVPAFIDETLAAKGAENIADRGEADASDDFEGTYEEWREHMWSDVAAYFNLDIENSEDNKSTLSLQFVDSAADMPLAKMHGAFSTNVVASKELQQPGSARSTRHLEIELPKEASYQEGDHLGVIPRNYEGIVNRVTARFGLDASQQIRLEAEEEKLAHLPLAKTVSVEELLQYVELQDPVTRTQLRAMAAKTVCPPHKVELEALLEKQAYKEQVLAKRLTMLELLEKYPACEMKFSEFIALLPSIRPRYYSISSSPRVDEKQASITVSVVSGEAWSGYGEYKGIASNYLAELQEGDTITCFISTPQSEFTLPKDPETPLIMVGPGTGVAPFRGFVQARKQLKEQGQSLGEAHLYFGCRSPHEDYLYQEELENAQSEGIITLHTAFSRMPNQPKTYVQHVMEQDGKKLIELLDQGAHFYICGDGSQMAPAVEATLMKSYADVHQVSEADARLWLQQLEEKGRYAKDVWAG | no activity on three out of the five probes |
